Experimental findings from patent US20100119506A1 (published 2010) are described below.

The target of experiment [1] is labeled peptide representing the N-terminus of PAR-2 (FRET assay). Briefly: cell-based or functional assay.
Experiment [2] addresses T1, FLAG-tagged PAR-2 over-expressed on HEK transfectants (Homo sapiens (Human), UniProt P55085 37-397).
T1 sequence: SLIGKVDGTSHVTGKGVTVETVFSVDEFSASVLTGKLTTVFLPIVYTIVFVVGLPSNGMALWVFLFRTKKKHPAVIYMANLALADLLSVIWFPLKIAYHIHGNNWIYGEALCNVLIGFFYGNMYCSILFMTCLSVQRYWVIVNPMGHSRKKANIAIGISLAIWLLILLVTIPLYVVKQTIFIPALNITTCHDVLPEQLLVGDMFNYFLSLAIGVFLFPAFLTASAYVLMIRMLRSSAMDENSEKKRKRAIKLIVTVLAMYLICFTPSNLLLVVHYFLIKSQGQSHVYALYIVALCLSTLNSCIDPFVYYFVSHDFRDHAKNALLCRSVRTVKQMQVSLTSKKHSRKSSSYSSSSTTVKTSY
The experiment can be described thus: cell-based or functional assay.

Experiment [3] concerns the target T2, Human PAR-2 on cells (human, UniProt P55085 26-397).
T2 sequence: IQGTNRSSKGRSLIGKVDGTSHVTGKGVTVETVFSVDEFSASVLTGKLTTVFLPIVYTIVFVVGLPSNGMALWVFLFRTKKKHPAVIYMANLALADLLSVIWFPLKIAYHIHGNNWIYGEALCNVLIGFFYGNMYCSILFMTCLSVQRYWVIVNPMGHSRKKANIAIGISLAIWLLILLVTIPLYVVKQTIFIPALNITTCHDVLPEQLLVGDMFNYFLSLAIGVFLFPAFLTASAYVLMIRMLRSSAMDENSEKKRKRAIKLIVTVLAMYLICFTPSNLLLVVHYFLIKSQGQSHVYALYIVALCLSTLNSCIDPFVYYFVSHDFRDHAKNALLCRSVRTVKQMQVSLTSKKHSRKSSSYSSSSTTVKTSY
The experiment can be described thus: cell-based or functional assay.

In experiment [4] the target is T3, PAR-1 peptide (SEQ ID NO:43).
T3 peptide: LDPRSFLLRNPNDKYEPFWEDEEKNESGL
The experiment can be described thus: ELISA on peptide. Background: An ELISA detects its analyte on a solid surface through an enzyme-linked reagent.

Experiment [5] concerns the target T4, PAR-2 peptide (SEQ ID NO:42) coupled to Transferrin as carrier (coupled to Transferrin as carrier).
T4 construct: Transferrin carrier not further described
T4 peptide: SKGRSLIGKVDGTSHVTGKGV
The experiment can be described thus: ELISA on peptide.

Experiment [6] has as its target T5, PAR-4 peptide (SEQ ID NO:44).
T5 peptide: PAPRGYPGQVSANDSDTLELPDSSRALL
The experiment can be described thus: ELISA on peptide.

Experiment [7] deals with T2, Human PAR-2 on cells. The experiment can be described thus: cell binding of IgG4_Pro, HEK-PAR-2 (#3).
For experiment [8], the target named is T2, Human PAR-2 on cells. Briefly: binding of IgG4p to PAR-2 transfected HEK cells (HEK-PAR-2 #3).
For experiment [9], the target named is T6, Rat PAR-2 (endogenous, ARIP cells and rat aortic rings) (rat, UniProt Q63645 37-397).
T6 sequence (looked up): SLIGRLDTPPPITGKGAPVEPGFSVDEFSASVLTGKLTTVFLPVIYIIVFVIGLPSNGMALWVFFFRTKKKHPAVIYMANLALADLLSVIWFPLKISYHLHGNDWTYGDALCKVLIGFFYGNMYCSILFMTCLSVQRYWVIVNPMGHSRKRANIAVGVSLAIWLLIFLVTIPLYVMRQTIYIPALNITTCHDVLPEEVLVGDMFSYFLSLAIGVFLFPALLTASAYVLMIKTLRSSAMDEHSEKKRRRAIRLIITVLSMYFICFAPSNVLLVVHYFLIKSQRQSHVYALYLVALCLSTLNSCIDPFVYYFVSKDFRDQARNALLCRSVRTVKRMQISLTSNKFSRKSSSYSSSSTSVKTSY
The experiment can be described thus: cell-based or functional assay.

In experiment [10] the target is T7, Mouse PAR-2 (endogenous, LLC cells and mouse aortic rings) (mouse, UniProt P55086 39-399).
T7 sequence (looked up): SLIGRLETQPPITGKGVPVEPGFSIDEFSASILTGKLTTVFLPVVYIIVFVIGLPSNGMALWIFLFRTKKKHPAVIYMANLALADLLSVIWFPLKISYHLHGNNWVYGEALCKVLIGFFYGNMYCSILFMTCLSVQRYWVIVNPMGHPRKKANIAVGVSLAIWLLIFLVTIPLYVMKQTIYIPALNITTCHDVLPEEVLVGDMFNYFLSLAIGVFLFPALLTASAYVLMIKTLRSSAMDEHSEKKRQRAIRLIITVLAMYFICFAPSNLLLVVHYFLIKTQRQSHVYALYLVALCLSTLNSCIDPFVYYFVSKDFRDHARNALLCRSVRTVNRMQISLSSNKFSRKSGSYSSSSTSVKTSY
The experiment can be described thus: cell-based or functional assay.

In experiment [11] the target is T2, Human PAR-2 on cells. The experiment can be described thus: cell-based or functional assay. This is another data set of the same source.
In experiment [12] the target is T8, Murine PAR-2 peptide (murine).
T8 construct: also called mouse PAR-2 peptide
T8 peptide: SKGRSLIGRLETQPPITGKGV
Briefly: Mouse PAR-2 Peptide Binding (Kinexa). On the procedure: (§1) Binding to peptide in solution was determined by Kinexa technology.

For experiment [13], the target named is T9, Rat PAR-2 peptide (rat).
T9 peptide: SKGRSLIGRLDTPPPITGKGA
The experiment can be described thus: Rat PAR-2 Peptide Binding (Kinexa). As for the experimental part: as §1

In experiment [14] the target is T10, Human PAR-2 peptide (SEQ ID NO:1, Residues 33-54) (human).
T10 peptide: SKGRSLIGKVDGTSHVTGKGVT
The experiment can be described thus: Kinexa, peptide in solution. As for the experimental part:
as §1

For experiment [15], the target named is T8, Murine PAR-2 peptide. Briefly: Kinexa, peptide in solution. As for the experimental part: as §1
The target of experiment [16] is T9, Rat PAR-2 peptide. The experiment can be described thus: Kinexa, peptide in solution. On the procedure: as §1
The target in experiment [17] is T11, Cynomolgus PAR-2 peptide (cynomolgus).
T11 peptide: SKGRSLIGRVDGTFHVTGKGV
The experiment can be described thus: Kinexa, peptide in solution. On the procedure:
as §1

Experiment [18] deals with T2, Human PAR-2 on cells. The experiment can be described thus: binding to human PAR-2 transfected HEK293 cells.

Positions count from the first letter of the chain named.

B1: Ab4999 IgG4_Pro (antibody, V domains shown)
VH: QVQLVESGGGLVQPGGSLRLSCAASGFTFSSYAMNWVRQAPGKGLEWVSTISYSSSATSYADSVKGRFTISRDNSKNTLYLQMNSLRAEDTAVYYCARIQNDPMDVWGQGTLVTVSS
VL: DIELTQPPSVSVAPGQTARISCSGDNLGKKYVQWYQQKPGQAPVLVIYDDSNRPSGIPERFSGSNSGNTATLTISGTQAEDEADYYCQTWDYSSIRDETNVFGGGTKLTVLG
notes: IgG4_Pro (human IgG4 constant regions, Ser241Pro hinge), lambda; also called IgG4p Ab4999
By EC50 is commonly meant the midpoint of the concentration-response curve. Consider B1, for which the “FRET Peptide Cleavage IC50” value in experiment [1] is under 30 nM. Further, in [2], the “FLAG Cell-Based Cleavage Approx. IC50” value was under 1 nM. Further, the “FLIPR A549 cells IC50” value in experiment [3] is 3.1 nM. In addition, the binding result in experiment [4] is “no binding”; in [5], “binds”; in experiment [6], “no binding”. Moreover, the EC50 in experiment [7] and in experiment [8] was 0.2 nM in each case.

B2: Antibody Par-B (antibody, V domains shown)
VH: B1 VH with Q3E
VL: B1 VL
notes: Codon-optimized version of Ab4999 made in CHO-DG44
Usually Kd stands for the free concentration of one partner at which half of the binding sites on the other are occupied at equilibrium, for simple one-to-one binding. Consider B2, for which the “Rat Aortic Ring Assay, shift of EC50 (Trypsin)” value in experiment [9] is about 8 fold. In experiment [10], the “Mouse Aortic Ring Assay, shift of EC50 (Trypsin)” value is about 5 fold. In addition, the “Mouse Cell Line FLIPR IC50” value in experiment [10] is about 0.4 nM. For the same molecule, in experiment [11], the “Human Keratinocyte/IL-8 assay IC50” value was about 100 nM. The Kd was 0.08 nM in experiment [12]; 0.02 nM in [13]; 0.08 nM in experiment [14]; 0.08 nM in [15]; 0.02 nM in experiment [16]; 0.04 nM in experiment [17]. Besides, the “fold vs. human peptide” value came to 1 fold in experiment [12] and 4 fold in experiment [13]. The molecule further gave a concentration giving a half-maximal response (EC50) in experiment [18] of about 0.3 nM.

B3: Ab5151 IgG4_Pro (cross-cloned: light chain of Ab4999 with heavy chain of Ab5007) (antibody, V domains shown)
VH: B1 VH with T50A, Y53F, S55G, S56H, A57L, S59G
VL: B1 VL
notes: IgG4_Pro format
With B3, the “FRET Peptide Cleavage IC50” value in experiment [1] is under 30 nM. The “FLAG Cell-Based Cleavage Approx. IC50” value in experiment [2] is under 1 nM. Further, in experiment [3], the “FLIPR A549 cells IC50” value is 4 nM. Further, the figures for the binding result in [4], in [5] and in experiment [6] were “no binding”, “binds” and “no binding”, respectively. In addition, the EC50 in [7] worked out at 0.4 nM.
